# Laboratory results published in patent US20220031840A1, “Method of Treatment” (HaemaLogix Pty Ltd, priority 2018, published 2022).
# Tests used:
# [1] = system: macrophage inhibitory factor (MIF); test: Biomarker analysis: serum MIF; assay type: in vivo, human; settings: adjusted for cytokine baseline differences
# Protocol: Patient serum samples for biomarker analysis were collected approximately 30 minutes before infusion of kappamab and then at 6, 48, 192, and 1,080 hours after infusion for all patients. Samples were analysed in triplicate and serum levels of 48 human cytokines, chemokines, and growth factors were measured using the Bio-Plex Pro™ Human Cytokine 27-plex and 21-plex assays according to the manufacturer's recommendations (Bio-Rad, Carlsbad, Calif., USA; Cat No M10-0KCAF0Y, mg0-005KMII). Results were verified by repeating the 21-plex assay in triplicate and the samples were randomized across the assay plate. Pre-infusion samples were used as the baseline (t=0) for the analysis.
# Multivariate analysis of the biomarker data was performed using R version 3.1.0 (2014-04-10) software (http://www.R-project.org/). Linear mixed effects modelling was completed using 1me4 (Bates et al. 2015). […]
# To find significance between kappamab dose, time, and cytokine expression levels, we fitted a linear mixed-effects model that modelled cytokine fluorescence expression levels with fixed-effects terms for baseline cytokine fluorescence expression, kappamab dose (with 4 levels: 0.3, 1.0, 3.0, and 10 mg/kg), time (treated as factor with 5 levels), and cytokine with 48 levels, plus their interactions, with a random effect associated with patient (12 levels) and plex (2 levels). […]
# serum λFLC = test: Serum λFLC (FreeLite assay); assay type: in vivo, human; settings: throughout the study
# Text: Serum FLC levels were quantified using the FreeLite™ assay (The Binding Site Group Ltd, Birmingham, UK). […] Twenty-four-hour urine collection for urine protein electrophoresis immunofixation, urine FLC measurement (FreeLite™ assay), and creatinine clearance were collected on the day of infusion and on Day 45.
# [2] = Phase 1 safety and tolerability of single IV infusion of kappamab (adverse events, laboratory, ECG)
# Protocol: Patients on maintenance therapy (thalidomide or lenalidomide) were also eligible for inclusion. Patients were excluded from the study if their serum κFLC was greater than 250 mg/L.
# The pharmacodynamics of serum κFLC was also assessed. Drug-target modulation of cell signalling pathways was determined by measuring pro-inflammatory and anti-inflammatory cytokines, chemokines, and growth factors in patient serum at specific time intervals.
# After providing HREC-approved consent, patients were screened and assessed for study eligibility.
# Within each dose cohort only 1 patient per week was to be treated. […] Premedication was not mandated, however, paracetamol (acetaminophen), corticosteroids, and antihistamines were allowed for the treatment of infusion reactions.
# Evaluation of safety and tolerability during treatment included vital signs, physical examination, electrocardiogram (ECG), haematology assessments, clinical chemistry, C-reactive protein, β2-microglobulin, immunoglobulin quantification, urinalysis, creatinine clearance, collection of adverse events (AEs), and drug-induced toxicity. All AEs were graded using the Cancer Therapy Evaluation Program Common Terminology Criteria for Adverse Events, version 3.0.
# [3] = All treatment-emergent AEs, Grade 1-3, 0.3 mg/kg (N = 3)
# [4] = All treatment-emergent AEs, Grade 1-3, 1.0 mg/kg (N = 3)
# [5] = All treatment-emergent AEs, Grade 1-3, 3.0 mg/kg (N = 3)
# [6] = All treatment-emergent AEs, Grade 1-3, 10 mg/kg (N = 3)
# [7] = All treatment-emergent AEs, Grade 1-3, Overall (N = 12)
# [8] = All treatment-emergent AEs, Grade 4/5, 0.3 mg/kg (N = 3)
# [9] = All treatment-emergent AEs, Grade 4/5, 1.0 mg/kg (N = 3)
# [10] = All treatment-emergent AEs, Grade 4/5, 3.0 mg/kg (N = 3)
# [11] = All treatment-emergent AEs, Grade 4/5, 10 mg/kg (N = 3)
# [12] = All treatment-emergent AEs, Grade 4/5, Overall (N = 12)
# [13] = All treatment-emergent AEs, Total, 0.3 mg/kg (N = 3)
# [14] = All treatment-emergent AEs, Total, 1.0 mg/kg (N = 3)
# [15] = All treatment-emergent AEs, Total, 3.0 mg/kg (N = 3)
# [16] = All treatment-emergent AEs, Total, 10 mg/kg (N = 3)
# [17] = All treatment-emergent AEs, Total, Overall (N = 12)
# [18] = Possibly, probably, or definitely related AEs, Grade 1-3, 0.3 mg/kg (N = 3)
# [19] = Possibly, probably, or definitely related AEs, Grade 1-3, 1.0 mg/kg (N = 3)
# [20] = Possibly, probably, or definitely related AEs, Grade 1-3, 3.0 mg/kg (N = 3)
# [21] = Possibly, probably, or definitely related AEs, Grade 1-3, 10 mg/kg (N = 3)
# [22] = Possibly, probably, or definitely related AEs, Grade 1-3, Overall (N = 12)
# [23] = Possibly, probably, or definitely related AEs, Grade 4/5, 0.3 mg/kg (N = 3)
# [24] = Possibly, probably, or definitely related AEs, Grade 4/5, 1.0 mg/kg (N = 3)
# [25] = Possibly, probably, or definitely related AEs, Grade 4/5, 3.0 mg/kg (N = 3)
# [26] = Possibly, probably, or definitely related AEs, Grade 4/5, 10 mg/kg (N = 3)
# [27] = Possibly, probably, or definitely related AEs, Grade 4/5, Overall (N = 12)
# [28] = Possibly, probably, or definitely related AEs, Total, 0.3 mg/kg (N = 3)
# [29] = Possibly, probably, or definitely related AEs, Total, 1.0 mg/kg (N = 3)
# [30] = Possibly, probably, or definitely related AEs, Total, 3.0 mg/kg (N = 3)
# [31] = Possibly, probably, or definitely related AEs, Total, 10 mg/kg (N = 3)
# [32] = Possibly, probably, or definitely related AEs, Total, Overall (N = 12)
# [33] = Related AEs by System Organ Class, Overall total, 0.3 mg/kg (N = 3)
# [34] = Related AEs by System Organ Class, Overall total, 1.0 mg/kg (N = 3)
# [35] = Related AEs by System Organ Class, Overall total, 3.0 mg/kg (N = 3)
# [36] = Related AEs by System Organ Class, Overall total, 10 mg/kg (N = 3)
# [37] = Related AEs by System Organ Class, Overall total, Overall (N = 12)
# [38] = Related AEs: Dyspnea, 10 mg/kg (N = 3)
# [39] = Related AEs: Dyspnea, Overall (N = 12)
# [40] = Related AEs: Eructation, 10 mg/kg (N = 3)
# [41] = Related AEs: Eructation, Overall (N = 12)
# [42] = Related AEs: Flushing, 10 mg/kg (N = 3)
# [43] = Related AEs: Flushing, Overall (N = 12)
# [44] = Related AEs: Gastrointestinal disorders, Total, 10 mg/kg (N = 3)
# [45] = Related AEs: Gastrointestinal disorders, Total, Overall (N = 12)
# [46] = Related AEs: Musculoskeletal and connective tissue disorders, Total, 10 mg/kg (N = 3)
# [47] = Related AEs: Musculoskeletal and connective tissue disorders, Total, Overall (N = 12)
# [48] = Related AEs: Nausea, 10 mg/kg (N = 3)
# [49] = Related AEs: Nausea, Overall (N = 12)
# [50] = Related AEs: Pain in extremity, 10 mg/kg (N = 3)
# [51] = Related AEs: Pain in extremity, Overall (N = 12)
# [52] = Related AEs: Respiratory, thoracic & mediastinal disorders, Total, 10 mg/kg (N = 3)
# [53] = Related AEs: Respiratory, thoracic & mediastinal disorders, Total, Overall (N = 12)
# [54] = Related AEs: Vascular disorders, Total, 10 mg/kg (N = 3)
# [55] = Related AEs: Vascular disorders, Total, Overall (N = 12)
substance,measurement,setting,value
"kappamab: humanized form of K121 anti-KMA antibody; VH SEQ ID NO: 1, VL SEQ ID NO: 2",Change in serum concentration,[1],dose-related decreases
same,Serum λFLC concentration,serum λFLC,no apparent change
same,DLT or discontinuation due to an AE,[2]; 0.3-10 mg/kg,no patients who experienced a DLT or discontinued the study due to an AE
same,Patients with nausea (most frequently reported AE),[2]; 2/12 patients,17%
same,Patients who experienced study drug-related AEs,"[2]; 2/12 patients, at the highest dose level (10 mg/kg)",17%
same,AEs that were grade 1 or 2,[2]; 17/18 events,94%
same,Number of patients with AEs (%),[2]; [3],2 (66%)
same,number of AEs,[2]; [3],4
same,Number of patients with AEs (%),[2]; [4],3 (100%)
same,number of AEs,[2]; [4],3
same,Number of patients with AEs (%),[2]; [5],1 (33%)
same,number of AEs,[2]; [5],2
same,Number of patients with AEs (%),[2]; [6],2 (67%)
same,number of AEs,[2]; [6],9
same,Number of patients with AEs (%),[2]; [7],8 (67%)
same,number of AEs,[2]; [7],18
same,Number of patients with AEs (%),[2]; [8],0 (0%)
same,number of AEs,[2]; [8],0
same,Number of patients with AEs (%),[2]; [9],0 (0%)
same,number of AEs,[2]; [9],0
same,Number of patients with AEs (%),[2]; [10],0 (0%)
same,number of AEs,[2]; [10],0
same,Number of patients with AEs (%),[2]; [11],0 (0%)
same,number of AEs,[2]; [11],0
same,Number of patients with AEs (%),[2]; [12],0 (0%)
same,number of AEs,[2]; [12],0
same,Number of patients with AEs (%),[2]; [13],2 (67%)
same,number of AEs,[2]; [13],4
same,Number of patients with AEs (%),[2]; [14],3 (100%)
same,number of AEs,[2]; [14],3
same,Number of patients with AEs (%),[2]; [15],1 (33%)
same,number of AEs,[2]; [15],2
same,Number of patients with AEs (%),[2]; [16],2 (67%)
same,number of AEs,[2]; [16],9
same,Number of patients with AEs (%),[2]; [17],8 (67%)
same,number of AEs,[2]; [17],18
same,Patients who experienced treatment-emergent AEs,"[2]; Eight of the 12 patients, all doses",67%
same,Number of patients with AEs (%),[2]; [18],0 (0%)
same,number of AEs,[2]; [18],0
same,Number of patients with AEs (%),[2]; [19],0 (0%)
same,number of AEs,[2]; [19],0
same,Number of patients with AEs (%),[2]; [20],0 (0%)
same,number of AEs,[2]; [20],0
same,Number of patients with AEs (%),[2]; [21],2 (67%)
same,number of AEs,[2]; [21],6
same,Number of patients with AEs (%),[2]; [22],2 (17%)
same,number of AEs,[2]; [22],6
same,Number of patients with AEs (%),[2]; [23],0 (0%)
same,number of AEs,[2]; [23],0
same,Number of patients with AEs (%),[2]; [24],0 (0%)
same,number of AEs,[2]; [24],0
same,Number of patients with AEs (%),[2]; [25],0 (0%)
same,number of AEs,[2]; [25],0
same,Number of patients with AEs (%),[2]; [26],0 (0%)
same,number of AEs,[2]; [26],0
same,Number of patients with AEs (%),[2]; [27],0 (0%)
same,number of AEs,[2]; [27],0
same,Number of patients with AEs (%),[2]; [28],0 (0%)
same,number of AEs,[2]; [28],0
same,Number of patients with AEs (%),[2]; [29],0 (0%)
same,number of AEs,[2]; [29],0
same,Number of patients with AEs (%),[2]; [30],0 (0%)
same,number of AEs,[2]; [30],0
same,Number of patients with AEs (%),[2]; [31],2 (67%)
same,number of AEs,[2]; [31],6
same,Number of patients with AEs (%),[2]; [32],2 (17%)
same,number of AEs,[2]; [32],6
same,Number of patients with AEs (%),[2]; [33],0[0]
same,number of AEs,[2]; [33],0[0]
same,Number of patients with AEs (%),[2]; [34],0[0]
same,number of AEs,[2]; [34],0[0]
same,Number of patients with AEs (%),[2]; [35],0[0]
same,number of AEs,[2]; [35],0[0]
same,Number of patients with AEs (%),[2]; [36],2 (67%)
same,number of AEs,[2]; [36],6
same,Number of patients with AEs (%),[2]; [37],2 (17%)
same,number of AEs,[2]; [37],6
same,Number of patients with AEs (%),[2]; [38],1(33%)
same,number of AEs,[2]; [38],1
same,Number of patients with AEs (%),[2]; [39],1 (8.3%)
same,number of AEs,[2]; [39],1
same,Number of patients with AEs (%),[2]; [40],1 (33%)
same,number of AEs,[2]; [40],1
same,Number of patients with AEs (%),[2]; [41],1 (8.3%)
same,number of AEs,[2]; [41],1
same,Number of patients with AEs (%),[2]; [42],1 (33%)
same,number of AEs,[2]; [42],1
same,Number of patients with AEs (%),[2]; [43],1 (8.3%)
same,number of AEs,[2]; [43],1
same,Number of patients with AEs (%),[2]; [44],2 (67%)
same,number of AEs,[2]; [44],3
same,Number of patients with AEs (%),[2]; [45],2 (17%)
same,number of AEs,[2]; [45],3
same,Number of patients with AEs (%),[2]; [46],1 (33%)
same,number of AEs,[2]; [46],1
same,Number of patients with AEs (%),[2]; [47],1 (8.3%)
same,number of AEs,[2]; [47],1
same,Number of patients with AEs (%),[2]; [48],2 (67%)
same,number of AEs,[2]; [48],2
same,Number of patients with AEs (%),[2]; [49],2 (8.3%)
same,number of AEs,[2]; [49],2
same,Number of patients with AEs (%),[2]; [50],1 (33%)
same,number of AEs,[2]; [50],1
same,Number of patients with AEs (%),[2]; [51],1 (8.3%)
same,number of AEs,[2]; [51],1
same,Number of patients with AEs (%),[2]; [52],1 (33%)
same,number of AEs,[2]; [52],1
same,Number of patients with AEs (%),[2]; [53],1 (8.3%)
same,number of AEs,[2]; [53],1
same,Number of patients with AEs (%),[2]; [54],1 (33%)
same,number of AEs,[2]; [54],1
same,Number of patients with AEs (%),[2]; [55],1 (8.3%)
same,number of AEs,[2]; [55],1
same,Time to resolution of infusion reaction symptoms,"[2]; after infusion was stopped, without treatment",≤ 30 min
same,Immune complex formation or serum sickness,[2]; any patient,no evidence of immune complex formation or serum sickness
same,Deaths or other serious AEs,[2]; during the study,no deaths or other serious AEs
same,"Serum immunoglobulin levels, clinical chemistry, haematology, urinalysis",[2]; during the study,no dose-related trends
same,ECG QTc intervals,[2]; in vivo,no prolongation of QTc intervals
same,ECOG performance status scores,[2]; in vivo,no effect
same,Lactate dehydrogenase levels or vital signs,[2]; in vivo,No changes from baseline
same,Serum C-reactive protein levels,[2]; in vivo,no apparent dose-related trend
same,Infusion reaction,"[2]; one patient, 10 mg/kg, flushing, dyspnea, nausea after start of infusion",grade 1 infusion reaction
same,Maximum tolerated dose,[2]; patients treated up to 10 mg/kg,No maximum tolerated dose of kappamab was defined
same,Kidney function,"[2]; serum blood urea nitrogen, serum creatinine, creatinine clearance",no drug-related effects on kidney function
